From the supplement of paper PMC9170038

System: K4 kissing-loop RNA reporter
Experiment: apparent KD of K4 kissing-loop reporter; higher = weaker reporter binding
Settings: Eterna round: R107
Procedure: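 RNA-MaP round R107: designed RNA switches with theophylline, tryptophan, arginine or FMN aptamers are transcribed on-chip within common flanks. They are titrated with a labelled K4 kissing-loop RNA reporter in RNA-MaP buffer (100 mM Tris pH 7.5, 80 mM KCl, 4 mM MgCl2), without ligand or with the indicated ligand. Median apparent KD per design.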

[1] = input ligand: theophylline 20 uM
[2] = input ligand: tryptophan 2.4 mM
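Note: bound reporter read as fluorescence of individual clusters on recovered sequencing chips by microscopy, with normalized cluster intensities fitted with a binding model.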

Sequence	apparent KD of K4 kissing-loop reporter (input ligand: FMN 200 uM) [µM]	apparent KD of K4 kissing-loop reporter (input ligand: arginine 13.2 mM) [µM]	apparent KD of K4 kissing-loop reporter (input ligand: none) [µM]	apparent KD of K4 kissing-loop reporter [1] [µM]	apparent KD of K4 kissing-loop reporter [2] [µM]
AUGUAUAUCUCAGGAUAUAUAUGUGUGUGGUGUAUACAUAGUGAUGUUGUGUAUAUCCACAUAUGUAUAGAAGGGAGAUGUGCAU [Skye_SS_FMNB]	0.0763	0.0735	0.0739	0.066	0.072
AUGUGGAGCGACGUUUAGAGAAACCGGGAAGGAGCGCGGAUAACCGCAGGUAGGUCGCCUGGUUGCCAGUGAUGUUGGCGACGUG [Exclusion Arg A GF 25]	0.0874	0.222	0.144	0.096	0.138
AUGUUUUAUAAACUCAUGGUUUCGACAGAUACCAGCUUCGAGAGGAGCCCUUGGCAGCUGCAUGAGUGAUGUUCAUGUACGAAGA [KL-XTheoA7]	0.374	0.356	0.465	0.415	0.265
AUUAAUAACUGAGGAUAUCGUUUUACUGUAGUGAUGUUACAGAAAAUGCACAUUAUAAUUUCUAUUCGAGAAGGCAGAAUAAUUA [JR_ExcFMNB_Sub013]	0.11	0.0755	0.0745	0.0741	0.0654
AUUAAUUUCAGAGGAUAUCGUAAUUUUAUUUAAUUUAUUCAUUUAUGCAGUGAUGUUGCUAAUAUUCGAGAAGGCUGAUUUAUAA [JR_ExcFMNB_Sub007]	0.103	0.121	0.0558	0.115	0.0522
AUUAAUUUCAGAGGAUAUCGUAAUUUUAUUUUAUUUUUUCAUUUAUGCAGUGAUGUUGCAUUUAUUCGAGAAGGCUGAUUUAUAA [JR_SSFMNB_Sub021]	0.0657	0.0744	0.0408	0.0696	0.0507
AUUAAUUUCAGAGGAUAUGCUUAAUUGAUUAAAUAUAAUCUAUUAUGCAGUGAUGUUGCAUUUUUUGCAGAAGGCUGAUUUAUAA [JR_SSFMNB_Sub017]	0.136	0.5	0.506	0.485	0.385
AUUUAAUUAACUGAUACCAGACUUAAUGUUUUGUAUAUUACUAGUGAUGUUAGUGAUUCUGUCCCUUGGCAGCAGUAUCUACUUA [JR_ExcTheophyB_Sub014]	0.14	0.152	0.152	0.153	0.117
AUUUAAUUAACUGAUACCAGACUUUUUGUUUUGUAUAUUACUAGUGAUGUUAGUGUUUCUGUCCCUUGGCAGCAGUAUCUACUUA [JR_ExcTheophyB_Sub016]	0.197	0.252	0.225	0.298	0.157
AUUUAUUCGUACUUUCAGUGAUGUUGAUAACGAGGACCGGUACGGCCGCCACUCGAUUUGGCGAUUUUGUAUUUUUUAUUCUAUA [JR_SSTryptoA_Sub010]	0.403	0.474	0.51	0.415	0.317
AUUUUGGUUGAAGGAUAUUCUCCCAUCGACGCGAUAAGAUACUUUGGAAGGUUUGCAGUGAUGUUGGAAGAAGGUCAAAGUUGUA [theeternabot_exclusion_KL_FMN_B_22]	0.479	0.382	0.611	0.689	0.523
CAAGGACGGCCGUAGGCAUACCGUCGAUUCAAGGAUAUCAAGAGAAUGAGAAGGUGAAGUUUAUACAGUGAUGUUGCUAUAGAGA [theeternabot_sameState_KL_FMN_A_6]	0.133	0.122	0.168	0.195	0.152
CACGAUGAAUUCUCUAGGAGUGAUGUUUUUCGAGGACCGGUACGGCCGCCACUCGGACCAGGAACGUGGGAGCGGCGAAAAGACU [jbmullin]	0.665	0.312	0.93	0.5	0.343
CACGAUGAAUUCUCUAGGAGUGAUGUUUUUCGAGGACCGGUACGGCCGCCACUCGGACCAGGAGCGUGGUAGCGGCGAAAAGACU [zpmullin]	0.769	0.256	0.545	0.523	0.484
CAUACGCAUGGAGGAUAUGAGAUUUCUCAUAUUAUUUAUUAUUCUCAGUGAUGUUGGGAUUUAAACUCAGAAGGCCAUGUGUAUG [Ex FMN B 8]	0.252	0.176	0.175	0.244	0.199
CAUAUAUACACUAACCCGUACGGUAGUAAGCGAGGACCGGUACGGCCGCCACUCGAUCGUUUCGUGUUAGCACCAGUGAUGUUGG [theeternabot_sameState_KL_Trp_A_3]	0.461	0.399	0.526	0.431	0.392
